Assay results: article PMC3176292

Assays:
Assay in all cases: co-IP; LUMIER: Renilla luciferase-Smad3 and Flag-tagged partner co-expressed with constitutively active Alk5 in HEK-293; Flag protein captured from cleared lysate (TNE: 10 mM Tris-HCl pH 7.8, 150 mM NaCl, 1 mM EDTA, 1% Igepal CA-630) on anti-Flag 96-well plates, 2 h at 4 °C; co-precipitated Renilla luciferase activity, TrxGA background subtracted, percent of wild-type Smad3
[1] = molecular target: Ski Smad-binding domain (amino acids 2–56) on the 3xFlag-thioredoxin scaffold (UniProt P12755)
Sequence of Ski Smad-binding domain (amino acids 2–56) on the 3xFlag-thioredoxin scaffold (P12755 2-56): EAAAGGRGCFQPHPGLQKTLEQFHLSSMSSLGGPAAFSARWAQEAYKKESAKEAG

Flag-Smad4, full length = Flag-Smad4, full length (UniProt Q13485)
Sequence of Flag-Smad4, full length (Q13485 whole entry): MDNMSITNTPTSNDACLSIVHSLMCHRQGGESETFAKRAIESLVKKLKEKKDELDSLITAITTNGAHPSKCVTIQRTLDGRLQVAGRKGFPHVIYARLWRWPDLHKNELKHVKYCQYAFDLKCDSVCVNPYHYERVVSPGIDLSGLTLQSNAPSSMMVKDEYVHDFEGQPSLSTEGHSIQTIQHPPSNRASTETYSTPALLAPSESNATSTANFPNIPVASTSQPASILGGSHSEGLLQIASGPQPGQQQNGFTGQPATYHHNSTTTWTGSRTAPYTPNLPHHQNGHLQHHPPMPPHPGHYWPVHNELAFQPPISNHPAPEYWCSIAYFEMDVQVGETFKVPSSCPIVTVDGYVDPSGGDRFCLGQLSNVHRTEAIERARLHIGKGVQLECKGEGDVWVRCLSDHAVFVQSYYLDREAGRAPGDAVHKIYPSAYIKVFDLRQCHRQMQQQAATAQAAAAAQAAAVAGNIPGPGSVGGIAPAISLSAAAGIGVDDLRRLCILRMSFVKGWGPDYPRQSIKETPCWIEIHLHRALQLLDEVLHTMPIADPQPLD

Flag-SARA, full length = Flag-SARA, full length (UniProt O95405)
Sequence of Flag-SARA, full length (O95405 whole entry, the tested form may be a part): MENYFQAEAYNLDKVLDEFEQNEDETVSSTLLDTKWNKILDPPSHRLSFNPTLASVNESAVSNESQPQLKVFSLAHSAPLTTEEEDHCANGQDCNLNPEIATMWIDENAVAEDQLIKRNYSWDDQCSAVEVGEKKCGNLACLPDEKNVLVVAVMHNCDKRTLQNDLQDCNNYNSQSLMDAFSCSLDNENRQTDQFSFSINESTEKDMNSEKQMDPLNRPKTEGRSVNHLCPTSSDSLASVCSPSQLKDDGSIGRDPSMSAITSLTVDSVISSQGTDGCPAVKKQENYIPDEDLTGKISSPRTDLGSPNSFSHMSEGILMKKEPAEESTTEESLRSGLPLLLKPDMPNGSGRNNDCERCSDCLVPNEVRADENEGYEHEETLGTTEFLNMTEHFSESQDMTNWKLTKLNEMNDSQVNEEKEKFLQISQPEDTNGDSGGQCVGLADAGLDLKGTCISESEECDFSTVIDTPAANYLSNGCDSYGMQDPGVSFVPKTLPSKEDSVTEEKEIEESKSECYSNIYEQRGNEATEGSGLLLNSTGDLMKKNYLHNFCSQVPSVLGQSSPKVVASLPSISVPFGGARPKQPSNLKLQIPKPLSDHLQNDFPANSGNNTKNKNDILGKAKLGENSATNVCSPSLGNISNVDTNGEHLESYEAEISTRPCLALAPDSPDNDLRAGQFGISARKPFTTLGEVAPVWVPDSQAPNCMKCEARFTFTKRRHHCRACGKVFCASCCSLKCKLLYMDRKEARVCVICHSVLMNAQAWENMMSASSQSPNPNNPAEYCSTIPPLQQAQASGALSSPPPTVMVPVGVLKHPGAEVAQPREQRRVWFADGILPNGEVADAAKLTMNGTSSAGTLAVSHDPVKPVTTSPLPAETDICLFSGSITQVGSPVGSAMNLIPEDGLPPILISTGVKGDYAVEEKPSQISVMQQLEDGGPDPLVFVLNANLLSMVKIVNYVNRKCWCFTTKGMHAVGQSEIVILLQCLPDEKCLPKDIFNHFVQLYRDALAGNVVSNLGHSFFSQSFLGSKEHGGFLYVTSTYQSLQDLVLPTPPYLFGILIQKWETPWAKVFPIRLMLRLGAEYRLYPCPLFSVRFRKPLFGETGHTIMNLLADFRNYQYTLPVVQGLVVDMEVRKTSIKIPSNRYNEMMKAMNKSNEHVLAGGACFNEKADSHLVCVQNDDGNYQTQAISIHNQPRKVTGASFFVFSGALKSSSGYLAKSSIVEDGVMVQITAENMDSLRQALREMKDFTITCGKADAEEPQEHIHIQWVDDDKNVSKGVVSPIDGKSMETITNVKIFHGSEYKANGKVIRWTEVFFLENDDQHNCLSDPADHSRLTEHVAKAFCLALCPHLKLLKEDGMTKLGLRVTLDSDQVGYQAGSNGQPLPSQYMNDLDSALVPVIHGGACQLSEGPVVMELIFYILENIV

[2] = molecular target: SIP1 Smad-binding domain (amino acids 315–487) on the 3xFlag-thioredoxin scaffold (UniProt Q9R0G7)
Sequence of SIP1 Smad-binding domain (amino acids 315–487) on the 3xFlag-thioredoxin scaffold (Q9R0G7 315-487): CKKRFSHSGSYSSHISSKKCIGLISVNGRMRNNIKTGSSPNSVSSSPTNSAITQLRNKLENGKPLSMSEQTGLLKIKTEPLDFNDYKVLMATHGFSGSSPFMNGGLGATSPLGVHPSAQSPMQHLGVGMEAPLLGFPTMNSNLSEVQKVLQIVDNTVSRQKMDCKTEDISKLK

[3] = molecular target: Flag-SkiW274E, full length (UniProt P12755)
Sequence of Flag-SkiW274E, full length (P12755 whole entry W274E, the tested form may be a part): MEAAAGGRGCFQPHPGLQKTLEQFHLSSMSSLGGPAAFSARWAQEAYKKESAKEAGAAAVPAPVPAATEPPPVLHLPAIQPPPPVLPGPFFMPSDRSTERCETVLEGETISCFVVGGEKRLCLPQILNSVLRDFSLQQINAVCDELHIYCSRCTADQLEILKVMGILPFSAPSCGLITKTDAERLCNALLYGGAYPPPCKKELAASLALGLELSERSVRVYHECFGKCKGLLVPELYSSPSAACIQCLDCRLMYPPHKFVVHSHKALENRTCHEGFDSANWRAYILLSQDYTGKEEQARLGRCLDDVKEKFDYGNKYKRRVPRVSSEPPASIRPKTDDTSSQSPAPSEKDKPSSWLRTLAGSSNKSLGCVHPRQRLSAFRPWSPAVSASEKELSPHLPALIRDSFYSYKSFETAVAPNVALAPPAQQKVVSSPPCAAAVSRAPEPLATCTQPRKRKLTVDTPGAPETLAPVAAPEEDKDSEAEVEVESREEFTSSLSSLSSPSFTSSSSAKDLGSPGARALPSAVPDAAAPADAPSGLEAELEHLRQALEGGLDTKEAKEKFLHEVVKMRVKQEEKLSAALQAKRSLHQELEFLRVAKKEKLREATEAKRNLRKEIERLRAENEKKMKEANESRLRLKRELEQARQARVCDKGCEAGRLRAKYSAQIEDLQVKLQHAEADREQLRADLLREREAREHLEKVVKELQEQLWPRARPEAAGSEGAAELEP

[4] = molecular target: Smurf2 Smad-binding domain (amino acids 252–330) on the Flag-thioredoxin scaffold (UniProt Q9HAU4)
Sequence of Smurf2 Smad-binding domain (amino acids 252–330) on the Flag-thioredoxin scaffold (Q9HAU4 252-330): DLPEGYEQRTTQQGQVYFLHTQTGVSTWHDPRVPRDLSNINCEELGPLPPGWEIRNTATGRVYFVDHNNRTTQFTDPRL

[5] = molecular target: SARA Smad-binding domain (amino acids 665–721) on the 3xFlag-thioredoxin scaffold (UniProt O95405)
Sequence of SARA Smad-binding domain (amino acids 665–721) on the 3xFlag-thioredoxin scaffold (O95405 767-823): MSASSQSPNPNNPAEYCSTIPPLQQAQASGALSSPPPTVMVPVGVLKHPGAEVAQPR

Flag-Smad3, full length = Flag-Smad3, full length (UniProt P84022)
Sequence of Flag-Smad3, full length (P84022 whole entry): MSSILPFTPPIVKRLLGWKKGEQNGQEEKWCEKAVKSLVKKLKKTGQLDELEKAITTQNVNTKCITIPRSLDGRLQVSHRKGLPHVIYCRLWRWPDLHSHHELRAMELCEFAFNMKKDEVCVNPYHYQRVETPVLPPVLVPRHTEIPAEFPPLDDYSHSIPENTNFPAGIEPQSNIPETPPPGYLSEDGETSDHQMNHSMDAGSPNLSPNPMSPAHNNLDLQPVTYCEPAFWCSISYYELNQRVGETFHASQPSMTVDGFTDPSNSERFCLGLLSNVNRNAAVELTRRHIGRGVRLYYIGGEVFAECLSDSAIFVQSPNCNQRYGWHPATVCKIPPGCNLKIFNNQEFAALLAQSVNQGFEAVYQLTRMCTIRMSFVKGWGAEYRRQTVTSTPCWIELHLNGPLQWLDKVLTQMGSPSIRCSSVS

Sequence of Renilla luciferase-Smad3 Del-PPGY (182–185) (P84022 whole entry): as above

Renilla luciferase-Smad3 Del-PPGY (182–185) (from UniProt P84022 1-425) (natural protein)
percent binding relative to wild-type Smad3 [1]: 160% | percent binding relative to wild-type Smad3 (Flag-Smad4, full length): 120% | percent binding relative to wild-type Smad3 (Flag-SARA, full length): 158% | percent binding relative to wild-type Smad3 [2]: 200% | percent binding relative to wild-type Smad3 [3]: 83% | percent binding relative to wild-type Smad3 [4]: 3% | percent binding relative to wild-type Smad3 [5]: 129% | percent binding relative to wild-type Smad3 (Flag-Smad3, full length): 86%
